B1: TpoR.CD40: SEQ ID NO: 9; TpoR fused to CD40 cytoplasmic domain (protein)
chain: MPSWALFMVTSCLLLAPQNLAQVSSQDVSLLASDSEPLKCFSRTFEDLTCFWDEEEAAPSGTYQLLYAYPREKPRACPLSSQSMPHFGTRYVCQFPDQEEVRLFFPLHLWVKNVFLNQTRTQRVLFVDSVGLPAPPSIIKAMGGSQPGELQISWEEPAPEISDFLRYELRYGPRDPKNSTGPTVIQLIATETCCPALQRPHSASALDQSPCAQPTMPWQDGPKQTSPSREASALTAEGGSCLISGLQPGNSYWLQLRSEPDGISLGGSWGSWSLPVTVDLPGDAVALGLQCFTLDLKNVTCQWQQQDHASSQGFFYHSRARCCPRDRYPIWENCEEEEKTNPGLQTPQFSRCHFKSRNDSIIHILVEVTTAPGTVHSYLGSPFWIHQAVRLPTPNLHWREISSGHLELEWQHPSSWAAQETCYQLRYTGEGHQDWKVLEPPLGARGGTLELRPRSRYRLQLRARLNGPTYQGPWSSWSDPTRVETATETAWISLVTALHLVLGLSAVLGLLLLRWQFPAHYRRLRHALWPSLPDLHRVLGQYLRDTAALSPPKATVSDTCEEVEPSLLEILPKSSERTPLPLCSSQAQMDYRRLQPSCLGTMPLSVCPPMAESGSCCTTHIANHSYLPLSYWQQPKKVAKKPTNKAPHPKQEPQEINFPDDLPGSNTAAPVQETLHGCQPVTQEDGKESRISVQERQ
modifications: TpoR-CD40; MISC_FEATURE (1)..(491): TpoR Extracellular Domain; MISC_FEATURE (492)..(513): TpoR Transmembrane Domain; MISC_FEATURE (514)..(635): TpoR Cytoplasmic Domain; MISC_FEATURE (636)..(697): CD40 Cytoplasmic Domain
B2: TpoR.IL2rγ: SEQ ID NO: 6; TpoR fused to IL2rγ cytoplasmic domain (protein)
chain: MPSWALFMVTSCLLLAPQNLAQVSSQDVSLLASDSEPLKCFSRTFEDLTCFWDEEEAAPSGTYQLLYAYPREKPRACPLSSQSMPHFGTRYVCQFPDQEEVRLFFPLHLWVKNVFLNQTRTQRVLFVDSVGLPAPPSIIKAMGGSQPGELQISWEEPAPEISDFLRYELRYGPRDPKNSTGPTVIQLIATETCCPALQRPHSASALDQSPCAQPTMPWQDGPKQTSPSREASALTAEGGSCLISGLQPGNSYWLQLRSEPDGISLGGSWGSWSLPVTVDLPGDAVALGLQCFTLDLKNVTCQWQQQDHASSQGFFYHSRARCCPRDRYPIWENCEEEEKTNPGLQTPQFSRCHFKSRNDSIIHILVEVTTAPGTVHSYLGSPFWIHQAVRLPTPNLHWREISSGHLELEWQHPSSWAAQETCYQLRYTGEGHQDWKVLEPPLGARGGTLELRPRSRYRLQLRARLNGPTYQGPWSSWSDPTRVETATETAWISLVTALHLVLGLSAVLGLLLLRWQFPAHYRRLRHALWPSLPDLHRVLGQYLRDTAALSPPKATVSDTCEEVEPSLLEILPKSSERTPLPLCSSQAQMDYRRLQPSCLGTMPLSVCPPMAESGSCCTTHIANHSYLPLSYWQQPERTMPRIPTLKNLEDLVTEYHGNFSAWSGVSKGLAESLQPDYSERLCLVSEIPPKGGALGEGPGASPCNQHSPYWAPPCYTLKPET
modifications: TpoR.IL2rgamma; MISC_FEATURE (1)..(491): TpoR Extracellular Domain; MISC_FEATURE (492)..(513): TpoR Transmembrane Domain; MISC_FEATURE (514)..(635): TpoR Cytoplasmic Domain; MISC_FEATURE (636)..(721): IL2r-gamma Cytoplasmic Domain

Columns and labels:
circulating platelets = conditions: 73 healthy volunteers, higher doses; cited from earlier work
primary human T-cells [1] = test: Eltrombopag and IL-2 on CrGFR transduced primary human T-cells, up to 21 days; format: cell-based; conditions: after 21 days, x3 donors, Eltrombopag
Protocol: (§1) FIGS. 6A-6B—Analysis of Eltrombopag and IL-2 on primary human T-cells from Donor 1. Primary human T-cells from donor 1 were transduced with the WT TpoR or variant CrGFR and incubated in the presence of IL2 or Eltrombopag. Cells were removed at time points up to 21 days and the proportion of cells expressing the receptor assessed using PE conjugated anti-CD110 antibodies and a MACSQuant analyser.
as §1, with “FIGS. 7A-7B—Analysis” for “FIGS. 6A-6B—Analysis”, “Donor 2.” for “Donor 1.”, “donor 2” for “donor 1”
as §1, with “FIGS. 8A-8B—Analysis” for “FIGS. 6A-6B—Analysis”, “Donor 3.” for “Donor 1.”, “donor 3” for “donor 1”
FIGS. 9A-9B—Selection of optimal CrGFRs for next round of analysis. Flow cytometry plots showing expression of CrGFRs in ×3 donor primary human T-cells after 21 days incubation in Eltrombopag. The receptors TpoR.CD40, TpoR.IL2rγ, TpoR.ITAM1, TpoR.A60, TpoR.LMP1-cyto and TpoR.TpoR-cyto.LMP1-cyto were chosen for future comparison with the wt TpoR.
Peripheral blood mononuclear cells were isolated from normal healthy donors before activation for 24 hours with T-cell activation and expansion beads (Invitrogen) according to the manufacturer's instructions before addition of lentiviral supernatants.
Following expansion cells were washed excessively to remove any exogenous IL2 and plated into 96-well U-bottom plates. Cells were supplemented with IL2 (Proleukin) or Eltrombopag (Stratech Scientific, Suffolk, UK). At various time points thereafter cells were either stained with a 1:400 dilution of eFlor-450 fixable viability dye (eBioscience, UK) and counted directly from the wells using a MACSQuant Cytometer, or were stained with DRAQ7 viability dye plus phycoerythrin conjugated anti-CD110 antibodies (Miltenyi Biotec, UK) and analysed using a MACSQuant cytomter. Cell viability and/or transduction level was then analysed using MACSQuantify software (Miltenyi Biotec, UK).
Next Applicants took these receptors and expressed them in primary human T-cells and exposed these cells to IL-2 or Eltrombopag. Three donor primary human T-cell populations were isolated from buffy coats and transduced with the indicated lentiviral constructs in the presence of CD3/CD28 Dynabeads. Following expansion the cells were incubated with IL-2 or Eltrombopag. Applicants saw an increase in expansion/survival of T-cells with some of the receptors in some of the donors. […] This narrowed Applicants' panel of receptors to analyse further to: TpoR.CD40, TpOR.IL2rγ, TpoR.ITAM1, TpOR.LMP1-cyt, and TpoR.TpoR-cyt-LMP1-cyt.

[2] = test system: Tumour Infiltrating Lymphocytes from TIL042; test: CrGFR in TIL042 mixed with patient matched tumour cells; format: cell-based, human
Protocol: (§2) FIG. 13—Analysis of Chimeric recombinant Growth Factor Receptors in TIL042. Tumour Infiltrating Lymphocytes from TIL042 were transduced with the WT TpoR or indicated variant CrGFR and incubated in the presence of patient matched tumour lines with the addition of IL2, Eltrombopag, IL-2+Eltrombopag, or no growth factors. Cells were analysed and counted at days 4 and 7 and the number of cells expressing the receptor assessed using PE conjugated anti-CD110 antibodies, DRAQ7 viability dye and a MACSQuant analyser. Graphs show counts between days 4 and 7 when recovery of TIL occurs after an initial contraction in numbers driven by tumour regulatory factors and/or activation induced cell death.
Applicants next assessed the ability of these receptors to promote survival/expansion in a model of adoptive cell therapy by engineering tumour infiltrating lymphocytes. TIL from patient TIL042 (Uveal melanoma) were engineered with the variant or wt CrGFR and mixed with patient matched tumour cells (CTUM42.1). On days 4 and 7 counts were made of the total cells as well as the CD110+ cells. Applicants found an initial decline in cell numbers, probably driven by AICD or intrinsic inhibitory factors. However between days 4 and 7 Applicants observed an increase in the numbers of CD110+ cells with all the receptors tested with Eltrombopag or Eltrombopag+low dose IL-2.

primary human T-cells [3] = test: Eltrombopag and IL-2 on CrGFR sorted (CD110+) primary human T-cells, up to 7 days; format: cell-based; conditions: for expansion of CrGFR cells above that with media alone: second donor (FIG. 12)
Protocol: (§3) FIG. 10—Analysis of Eltrombopag and IL-2 on CrGFR sorted primary human T-cells from Donor 4. Primary human T-cells from donor 4 were transduced with the WT TpoR or variant CrGFR, and enriched for expression by Miltenyi MACS technology selected for and incubated in the presence of IL2 or Eltrombopag. Cells were removed at time points up to 7 days and the number of cells expressing the receptor assessed using PE conjugated anti-CD110 antibodies, DRAQ7 viability dye and a MACSQuant analyser.
as §3, with “11—Analysis” for “10—Analysis”, “5.” for “4.”, “5” for “4”
as §3, with “12—Analysis” for “10—Analysis”, “6.” for “4.”, “6” for “4”
Paramagnetic bead sorts were conducted as per the manufacturers' instructions using either anti-PE microbeads (Miltenyi Biotec or StemCell Technologies), or T-cell isolation beads (17951: StemCell Technologies).
Next Applicants repeated the experiment but sorted the CrGFR+ cells using CD110+ selection by paramagnetic bead selection using the receptors identified from the first round of selections (FIGS. 10, 11 and 12). Applicants observed enhanced survival of T-cells engrafted with the majority of the CrGFR in all three donors. In particular Applicants saw expansion of WT-TpoR, TpOR.CD40, TpOR.IL2rγ and TpoR.LMP1-cyto cells in the second donor (FIG. 12) above that with media alone.

ovarian TIL = test: CrGFR in ovarian TIL mixed with patient matched tumour cells; format: cell-based, human; conditions: all three donors
Protocol: as §2, with “14—Analysis” for “13—Analysis”, “Ovarian TIL.” for “TIL042.”, “×3 ovarian TIL” for “TIL042”, “cells” for “lines”, “either Eltrombopag” for “the addition of IL2, Eltrombopag, IL-2+Eltrombopag,”
Applicants evaluated further the effect of the CrGFR in ovarian TIL. Three ovarian TIL populations were engineered to express either the WT, or TpoR.CD40, TpoR.IL2rγ or TpoR.LMP1-Cyt variant receptors and mixed with patient matched tumour cells in the presence or absence of Eltrombopag. Counts of total and CD110+ cells were made after 4 and 7 days. Applicants observed specific expansion of the CrGFR+ cells in the presence of tumour between days 4 and 7 in donors 2 and 3 with all the receptors except the TpOR.LMP1.cyt.

phospho-STAT5 = test: Induction of pSTAT5 in CrGFR expressing T-cells; format: cell-based, human; conditions: T-cells transduced with wt TpoR, TpoR.CD40 or TpoR.IL2rγ
Protocol: FIG. 15—Induction of pSTAT by chimeric recombinant growth factor receptors. Primary human T-cells were isolated and transduced with the indicated CrGFR. Cells were enriched for CrGFR expression using Miltenyi MACS technology and expanded via polyclonal stimulation. The enriched cells were stimulated for 4 h with either media alone (RPMI), IL2, IL12, Tpo or Eltrombopag (Elt) before methanol fixation and intracellular staining with antibodies towards phospho-STAT5.
Finally, Applicants validated the signalling potential of the novel CrGFR by conducting phospho STAT analysis upon treatment of CrGFR expressing T-cells with media, cytokine or drug. To this end T-cells from 4 donors were transduced with either the wt TpoR, TpoR. CD40 or TpoR.IL2rγ, enriched for CrGFR expression using paramagnetic bead selection protocols and then expanded using polyclonal stimulation. The cells were treated for four hours with media alone (RPMI), IL-2, Tpo or Eltrombopag (Elt) before methanol fixation, permeabilization and analysis using pSTAT specific antibodies. STAT molecules are the key drivers of cell signalling upon cytokine activation of cells, pSTAT5 in particular is key to IL-2 activity.

Molecule	tolerability (circulating platelets)	proportion of viable cells with a distinct population of CD110+ cells (primary human T-cells [1])	non-specific enrichment in IL2 alone ([2]; TIL042 with patient matched tumour cells)	Eltrombopag mediated survival/expansion of TIL ([2]; conclusion)	activity in primary human T-cells (primary human T-cells [3]; conclusion)	expansion of CrGFR cells above that with media alone (primary human T-cells [3])	activity compared with the WT receptor (ovarian TIL)	STAT5 activation of the CrGFR when stimulated with Eltrombopag (phospho-STAT5)
CC1=NN(c2ccc(C)c(C)c2)C(=O)/C1=N\Nc1cccc(-c2cccc(C(=O)O)c2)c1O [Eltrombopag]	without tolerability problems	–	–	–	–	–	–	–
B1	–	good proportion of viable cells with a distinct population of CD110+ cells	no non-specific enrichment	very specific	optimal activity	expansion	superior to that of the WT receptor	–
B2	–	good proportion of viable cells with a distinct population of CD110+ cells	–	–	–	expansion	superior to that of the WT receptor	clear activation of the correct STAT5 activation pathway

Reference: patent US20210205365A1, “Chimeric Growth Factor Receptors” (Instil Bio (UK) Ltd., priority 2018, published 2021)
